Measurements published in patent US20210196796A1 (SYNTHEKINE, published 2021).
Positions count from the first letter of the chain named. In names and notes the source's numbering stands.

T1: orthogonal hCD122 receptor (hoRb), hCD122 with H133D and Y134F (human, UniProt P14784 27-550)
T1 sequence: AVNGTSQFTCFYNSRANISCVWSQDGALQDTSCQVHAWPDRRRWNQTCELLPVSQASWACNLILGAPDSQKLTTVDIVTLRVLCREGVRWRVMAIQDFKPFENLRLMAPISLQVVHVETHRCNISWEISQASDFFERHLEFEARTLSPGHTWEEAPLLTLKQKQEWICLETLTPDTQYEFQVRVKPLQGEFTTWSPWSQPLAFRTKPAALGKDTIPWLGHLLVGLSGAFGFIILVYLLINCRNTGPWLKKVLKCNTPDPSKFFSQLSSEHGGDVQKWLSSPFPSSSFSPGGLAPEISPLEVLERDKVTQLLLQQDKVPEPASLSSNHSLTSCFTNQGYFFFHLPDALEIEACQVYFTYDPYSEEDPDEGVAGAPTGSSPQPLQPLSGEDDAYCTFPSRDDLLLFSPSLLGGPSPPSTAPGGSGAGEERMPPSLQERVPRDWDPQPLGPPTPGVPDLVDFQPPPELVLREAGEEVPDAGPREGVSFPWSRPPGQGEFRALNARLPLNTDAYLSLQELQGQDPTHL

B1: Q126M, SQVLKA (ligand)
chain: APTSSSTKKTQLQLSQLLVLLKAILNGINNYKNPKLTRMLTFKFYMPKKATELKHLQCLEEELKPLEEVLNLAQSKNFHLRPRDLISNINVIVLELKGSETTFMCEYADETATIVEFLNRWITFCMSIISTLT
B2: Q126C, SQVLKA (ligand)
chain: B1 chain with M126C
B3: Q126D, SQVLKA (ligand)
chain: B1 chain with M126D
B4: Q126K, SQVLKA (ligand)
chain: B1 chain with M126K
B5: L14W, SQVLKA (ligand)
chain: B1 chain with L14W, M126Q
B6: Q126E, SQVLKA (ligand)
chain: B1 chain with M126E

target: T1, orthogonal hCD122 receptor (hoRb), …; experiment: cell-based or functional assay
For Relative Proliferation Fold Change 3F8 1:10 in this document: reference of the scale not given here.
For Relative Proliferation Fold Change 3F8 1:2 in this document: reference of the scale not given here.
For Relative Proliferation Fold Change 3F8 1:50 in this document: reference of the scale not given here.
For Relative Proliferation Fold Change NKL 1:10 in this document: reference of the scale not given here.
For Relative Proliferation Fold Change NKL 1:2 in this document: reference of the scale not given here.
For Relative Proliferation Fold Change NKL 1:50 in this document: reference of the scale not given here.

NKL Ortho Proliferation Signal 1:2	NKL Ortho Proliferation Signal 1:10	NKL Ortho Proliferation Signal 1:50	Relative Proliferation Fold Change NKL 1:2 [fold]	Relative Proliferation Fold Change NKL 1:10 [fold]	Relative Proliferation Fold Change NKL 1:50 [fold]	Binder
19800	18700	9760	2	1.29	0.74	B1
6560	8210	7200	0.44	0.53	0.49	B2
4640	7560	6380	0.39	0.49	0.46	B3
6510	7930	6980	0.54	0.56	0.53	B4
50300	45100	20900	4.04	2.83	1.39	B5
10600	8600	6800	1.01	0.68	0.55	B6

target: T1, orthogonal hCD122 receptor (hoRb), …; experiment: cell-based or functional assay; remark: another data set of the same source

3F8 Ortho Proliferation Signal 1:2 [cts/min]	3F8 Ortho Proliferation Signal 1:10 [cts/min]	3F8 Ortho Proliferation Signal 1:50 [cts/min]	Relative Proliferation Fold Change 3F8 1:2 [fold]	Relative Proliferation Fold Change 3F8 1:10 [fold]	Relative Proliferation Fold Change 3F8 1:50 [fold]	Binder
33100	33200	17100	154	55.6	31.8	B1
452	574	748	2.28	0.68	1.4	B2
294	368	544	0.63	0.4	0.61	B3
2720	2490	964	9.18	7.29	1.51	B4
35300	36000	13600	66.2	31.8	16.5	B5
21000	14600	2660	129	33.6	6.4	B6
